Assay results published in patent US20120093799A1, “RECOMBINANTLY MODIFIED PLASMIN” (priority 2007, published 2012).

Columns and labels:
α2-antiplasmin = target: T1, α2-antiplasmin (Homo sapiens, UniProt P08697); assay: rate of inhibition by α2-antiplasmin (method of Wiman and Collen, S-2251 activity at time points); assay type: biochemical; settings: 22° C. in PBS buffer, pH 7.4
T1 sequence (P08697 40-491): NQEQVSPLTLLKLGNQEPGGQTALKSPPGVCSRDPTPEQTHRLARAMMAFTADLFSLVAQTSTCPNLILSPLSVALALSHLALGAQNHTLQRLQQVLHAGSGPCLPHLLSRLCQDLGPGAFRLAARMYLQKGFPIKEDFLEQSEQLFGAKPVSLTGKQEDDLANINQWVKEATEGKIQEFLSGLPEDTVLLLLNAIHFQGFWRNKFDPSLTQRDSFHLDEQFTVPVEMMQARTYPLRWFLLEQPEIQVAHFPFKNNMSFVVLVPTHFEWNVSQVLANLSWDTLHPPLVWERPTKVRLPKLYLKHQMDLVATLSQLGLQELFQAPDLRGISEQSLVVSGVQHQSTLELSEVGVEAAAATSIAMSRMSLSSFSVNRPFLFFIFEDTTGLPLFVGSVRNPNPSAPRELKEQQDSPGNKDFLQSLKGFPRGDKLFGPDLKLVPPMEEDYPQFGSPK
Experimental: The rate of inhibition of (TAL6003)-plasmin by α2-antiplasmin was determined to be 1.8±0.06×10^7 M^−1 s^−1 using the method of Wiman and Collen (Wiman, B. and D. Collen, Eur. J. Biochem. 84: 573-578 (1978)) in which plasmin and α2-antiplasmin are mixed then assayed for S-2251 activity at specific time points (Table 3).
Literature values are taken from Anonick, et al., Thrombosis Res. 59: 449 (1990). All rates were measured according to the methods published in Anonick, et al.

[1] = stability and formulation pH; assay type: physicochemical
Description: As shown previously for plasmin by Novokhatny et al., J. Thromb. Haemost. […] When mixed with plasma or neutral pH buffers, (TAL6003)-plasmin is quickly re-activated.

[2] = amidolytic activity with plasmin substrate S-2251, steady-state kinetics; assay type: biochemical; settings: S-2251, PBS, pH 7.4, 25° C.; before correction for percent active sites
[3] = pNPGB active site titration; assay type: biochemical
Experimental: (§1) Correcting kcat for percent active sites, a kcat of about 725 min^−1 was determined. This value was very close to the value determined in the same assay for full-length plasmin, 820±23 min^−1 and for micro-plasmin (lacking all five kringles), 795±24 min^−1.

[4] = amidolytic activity with plasmin substrate S-2251, steady-state kinetics; assay type: biochemical; settings: substrate S-2251, PBS buffer, pH 7.4, 25° C.
Experimental: The amidolytic activity of (TAL6003)-plasmin was examined using the plasmin substrate D-Val-Leu-Lys-p-nitroanilide (S-2251) (DiaPharma, West Chester, Ohio).
as §1

B1: (TAL6003)-plasmin: two-chain active enzyme obtained by streptokinase activation of (TAL6003)-plasminogen (protein)
chain: MRDVVLFEKKVYLSECKTGNGKNYRGTMSKTKNGITCQKWSSTSPHRPRFSPATHPSEGLEENYCRNPDNDPQGPWCYTTDPEKRYDYCDVPQCAAPSFDCGKPQVEPKKCPGRVVGGCVAHPHSWPWQVSLRTRFGMHFCGGTLISPEWVLTAAHCLEKSPRPSSYKVILGAHQEVNLEPHVQEIEVSRLFLEPTRKDIALLKLSSPAVITDKVIPACLPSPNYVVADRTECFITGWGETQGTFGAGLLKEAQLPVIENKVCNRYEFLNGRVQSTELCAGHLAGGTDSCQGDSGGPLVCFEKDKYILQGVTSWGLGCARPNKPGVYVRVSRFVTWIEGVMRNN
modifications: Polypeptide having a single N-terminal kringle domain homologous to a kringle domain of a native human plasminogen
rate of inhibition by α2-antiplasmin (α2-antiplasmin): 1.8±0.06×10^7 M^−1 s^−1 | storage stability in the final formulation ([1]; pH 3.6, acidified with acetic acid-saline, low buffering capacity): allows safe storage of active plasmins for prolonged periods of time | stability at physiological pH ([1]; physiological pH): prone to auto-degradation | kcat for the preparation [2]: about 725 min−1 | percent of functional active sites [3]: 67% | Km [4]: 141 µM
